Reference: patent US20240199762A1 (PHILOGEN S P A, published 2024)

T1: human FAP-ECD (extracellular domain) recombinant fragment containing a C-terminal His6 tag (human, UniProt Q12884 26-760, randomly biotinylated with NHS ester-activated biotin (as used on the SA chip and Streptawell plates))
T1 construct: also called biotinylated human FAP-ECD; biotinylated human FAP
T1 sequence: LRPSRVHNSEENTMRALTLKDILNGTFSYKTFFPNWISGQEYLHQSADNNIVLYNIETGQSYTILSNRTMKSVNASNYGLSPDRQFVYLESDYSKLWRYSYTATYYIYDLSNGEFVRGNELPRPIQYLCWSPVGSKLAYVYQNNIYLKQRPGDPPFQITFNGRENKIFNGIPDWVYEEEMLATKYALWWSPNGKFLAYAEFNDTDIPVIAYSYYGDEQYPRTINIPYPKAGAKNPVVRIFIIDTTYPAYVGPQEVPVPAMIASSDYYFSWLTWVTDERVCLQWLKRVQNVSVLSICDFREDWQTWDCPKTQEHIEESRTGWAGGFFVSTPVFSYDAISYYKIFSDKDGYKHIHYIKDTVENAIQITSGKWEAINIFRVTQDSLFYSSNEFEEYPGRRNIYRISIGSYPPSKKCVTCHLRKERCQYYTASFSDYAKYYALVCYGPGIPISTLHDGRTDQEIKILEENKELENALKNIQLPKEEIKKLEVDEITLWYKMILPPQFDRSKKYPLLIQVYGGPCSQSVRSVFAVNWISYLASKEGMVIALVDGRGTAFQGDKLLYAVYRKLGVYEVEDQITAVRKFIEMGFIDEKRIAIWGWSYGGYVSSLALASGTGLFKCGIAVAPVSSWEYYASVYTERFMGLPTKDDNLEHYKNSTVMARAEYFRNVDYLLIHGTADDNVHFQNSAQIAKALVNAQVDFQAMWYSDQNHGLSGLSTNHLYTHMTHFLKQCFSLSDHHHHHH

T2: human FAP expressed on transduced cells (SKRC52-hFAP, HT-1080-hFAP) (human, UniProt Q12884 1-760)
T2 construct: whole, on cells; Also the target in SKRC52-hFAP tumor cryosections and in tumors of tumor-bearing mice; also called cell-expressed human FAP
T2 sequence (looked up): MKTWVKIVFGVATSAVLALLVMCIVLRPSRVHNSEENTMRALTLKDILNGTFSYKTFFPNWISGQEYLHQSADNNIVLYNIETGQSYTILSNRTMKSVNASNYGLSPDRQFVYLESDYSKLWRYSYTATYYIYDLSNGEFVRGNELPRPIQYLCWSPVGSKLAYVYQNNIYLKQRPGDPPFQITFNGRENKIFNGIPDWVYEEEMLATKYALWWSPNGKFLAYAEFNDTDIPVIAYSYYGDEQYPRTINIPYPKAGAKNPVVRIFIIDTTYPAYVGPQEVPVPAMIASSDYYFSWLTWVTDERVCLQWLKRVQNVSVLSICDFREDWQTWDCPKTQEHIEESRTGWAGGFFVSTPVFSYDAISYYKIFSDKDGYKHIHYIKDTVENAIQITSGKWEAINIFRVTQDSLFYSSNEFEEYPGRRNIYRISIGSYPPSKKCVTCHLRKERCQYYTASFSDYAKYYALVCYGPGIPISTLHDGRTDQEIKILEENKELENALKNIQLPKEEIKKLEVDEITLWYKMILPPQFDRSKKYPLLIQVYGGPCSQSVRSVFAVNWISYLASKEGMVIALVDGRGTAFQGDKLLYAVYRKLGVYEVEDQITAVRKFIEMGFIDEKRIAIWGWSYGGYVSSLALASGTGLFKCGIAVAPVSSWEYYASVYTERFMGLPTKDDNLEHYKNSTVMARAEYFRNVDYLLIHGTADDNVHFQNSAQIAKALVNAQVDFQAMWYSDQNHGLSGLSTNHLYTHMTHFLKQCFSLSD


Key:
[1] = biological target: T1, human FAP-ECD (extracellular domain) …; assay: SPR, BIAcore X100, biotinylated human FAP-ECD on SA chip (1500 RU), monomeric scFv injected
Procedure: Affinity measurements of the C5 and 7NP2 scFv antibodies were performed by Surface Plasmon Resonance using BIAcore X100 instrument with a biotinylated human FAP-ECD coated SA chip. A final coating of 1500 RU was achieved.
Samples were injected at a concentration of […], 450 nM and 225 nM for the C5 scFv and of 1350 nM, 675 nM, 338 nM and 170 nM for the 7NP2 scFv. No regeneration of the SA chip was performed between each run, scFvs were left to detach from the antigen. KD measurements were assessed using the BIAevaluation 3.2 software.

[2] = biological target: T2, human FAP expressed on transduced cells …; assay: flow cytometry on HT-1080-hFAP and SKRC52-hFAP cells against wild-type cells
Procedure: The cell lines used were the human renal cell carcinoma cell line SKRC52 and the human fibrosarcoma cell line HT-1080.
Specifically, SKRC52-hFAP, SKRC52 wild-type (wt), HT-1080-hFAP and HT-1080 wt cells were detached from cell culture plates using Accutase, counted and suspended to a final concentration of 1×10⁶ cells/mL in FACS buffer (0.5% BSA, 2 mM EDTA in PBS). Cells were incubated with the 7NP2 or KSF antibodies in SIP format and binding detected using an […] (25 μg/ml), followed by staining with the anti-rat AlexaFluor488 antibody. Cells were analyzed on a CytoFLEX cytometer (Beckman Coulter). The raw data were processed using the FlowJo 10.4 software.

| Kd [1] | binding result [2] | Binder |
| --- | --- | --- |
| 10 nM |  | affinity-matured anti-FAP antibody 7NP2 in scFv format (scFv, The monomeric scFv was used in BIAcore; also called 7NP2 scFv; scFv(7NP2)) scFv: EVQLLESGGGLVQPGGSLRLSCAASGFTFSSYAMSWVRQAPGKGLEWVSAIGSVGGPTYYADSVKGRFTISRDNSKNTLYLQMNSLRAEDTAVYYCAKRLAWFDYWGQGTLVTVSSGGGGSGGGGSGGGGEIVLTQSPGTLSLSPGERATLSCRASQSVSSSYLAWYQQKPGQAPRLLIYGASSRATGIPDRFSGSGSGTDFTLTISRLEPEDFAVYYCQQSGKGPLTFGQGTKVEIK |
|  | binds | anti-FAP antibody 7NP2 in SIP (small immunoprotein) format (other, Homodimeric mini-immunoglobulin: 77 kDa under non-reducing and 38 kDa under reducing conditions; also called 7NP2 SIP; 7NP2(SIP)) EVQLLESGGGLVQPGGSLRLSCAASGFTFSSYAMSWVRQAPGKGLEWVSAIGSVGGPTYYADSVKGRFTISRDNSKNTLYLQMNSLRAEDTAVYYCAKRLAWFDYWGQGTLVTVSSGGGGSGGGGSGGGGEIVLTQSPGTLSLSPGERATLSCRASQSVSSSYLAWYQQKPGQAPRLLIYGASSRATGIPDRFSGSGSGTDFTLTISRLEPEDFAVYYCQQSGKGPLTFGQGTKVEIKSGGSGGPRAAPEVYAFATPEWPGSRDKRTLACLIQNFMPEDISVQWLHNEVQLPDARHSTTQPRKTKGSGFFVFSRLEVTRAEWEQKDEFICRAVHEAASPSQTVQRAVSVNPESSRRGGC |
